Laboratory results taken from the DeepSol protein solubility set.

Experiment: soluble on expression in E. coli; label from the status in PepcDB or PDB records
For “MGHHHHHHSHGSCEVLRLLDLGASPSYRRWIWQHLELIDGRPLKTHLSEYSPMERFKEFQIKSYPLQDFSSLKLPHLKKAWGLQGTSFSRKIRTSGDTLPKMLGPKIQSRPAQSIKCAMINIKPGELPKEAAVGAYVKVHTVEQGEILGLHQAFLPEGECDTRPLILMSLGNELIRIRKEIFYELIDNDDEMIKKLLKLNIAFPSDEDMCQKFLQQNSWNIFRKDLLQLLVEPCQSQLFTPNRPKKREIYNPKSVVLDLCSINKTTKPRYPIFMAPQKYLPPLRIVQAIKAPRYKIRELLA”, the “soluble on expression in E. coli” value was “not soluble”. In the case of “MGHHHHHHSHIVERVIEATLPTKFYGTFRAVGYKTPLGEIVALVKGRVDEGDVLVRIHSECLTGDVFHSLRCDCGDQLENALKMIDREGKGVAIYMRGHEGRGIGLINKLMAYKLQEEGKDTVDANIELGFPPDMRSYGIAAQILMDLKVKSIRLLTNNPLKIEELKKYGFKIVREPIE”, the “soluble on expression in E. coli” value is reported as “soluble”. With “MGHHHHHHSHKNMKPIGCNAVQLTGGEPTLRDDLIDIIRMIKEEGYDHIQLNTNGIRLAEDPDFALRVRVAGVNTVYLSFDGVDEKTNPKNHHEIPKILENCRRAQLGLVLVPTVIKGVNDHQLGDIIRFAAENIDIVRGVNFQPVSLVGSMPRKEREQFRITIPDCIKAIEEQTNGEIGREDFYPVPSVVPISRFVEALTGQPQYELTTHFACGMATYIFKDNGRLIPITRFVDVEGLFEF” the “soluble on expression in E. coli” value was “not soluble”. In the case of “MGHHHHHHSHMAEISDLDRQIEQLRRCELIKESEVKALCAKAREILVEESNVQRVDSPVTVCGDIHGQFYDLKELFRVGGDVPETNYLFMGDFVDRGFYSVETFLLLLALKVRYPDRITLIRGNHESRQITQVYGFYDECLRKYGSVTVWRYCTEIFDYLSLSAIIDGKIFCVHGGLSPSIQTLDQIRTIDRKQEVPHDGPMCDLLWSDPEDTTGWGVSPRGAGYLFGSDVVAQFNAANDIDMICRAHQLVMEGYKWHFNETVLTVWSAPNYCYRCGNVAAILELDEHLQKDFIIFEAAPQETRGIPSKKPVADYFL”, the “soluble on expression in E. coli” value is reported as “not soluble”. With “MGHHHHHHSHMAERETETSNSESKQDKAASSKEKNGCNANSFEGSSTTKSEESITVSDKENETCLADQETGSKNIVSCDSNIGADKVEKKKQIQHVCQEMELKMCQSSENIILSDQIKDHNSSEARFSSKNIKDLRLASDNVSIDQFLRKRHEPESVSSDVSEQGSIHLEPLTPSEVLEYEATEILQKGSGDPSAKTDEVVSDQTDDIPGGNNPSTTEATVDLEDEKERS” the “soluble on expression in E. coli” value was “soluble”. In the case of “MGHHHHHHSHMANSAGSMANSAGSDKGEQYTLAVGHSLPPALESKLNEIDEISVKTFAKPEEAVDEGKADAYLNVPKEFDSYVNSMTPFKVDVYGNSIDQGSSNAMQLVQSALDQYKNEIVQQRLTNKHIDQSVIQPFTIQQKEADEEKGTSAI”, the “soluble on expression in E. coli” value is reported as “not soluble”. With “MGHHHHHHSHMANSAGSMANSAGSMATLSDFFPEADPVLEKNYRRCVDLAINMSWSVPGQFKLVETPINSFLLVGDVLPNDMIESKPVNSTNLVNIPFPLSTLGVSTSKKSVEVTSYKSETEKFQEAASISEHSIRGSIVYEGLTWITAMGYNVTDFLVNMLEQMKCPENWSGLHPVDPLACVWLLYFGPKSRCSEIACVSELFIGKKGPILLPPHMYRGDTSVNSFAHHLCQYVKHLYADYEPEILSCPLDITRVKGCLSDLRQVAESCVFLSQRCLLCHLYKQNAAVSKNILTASDCIILGGSGKSLLGTYMKSYKDPATHDSILLPTYNLEAIVNYILEHYGHETAGQEINWE” the “soluble on expression in E. coli” value was “not soluble”. In the case of “MGHHHHHHSHMAQLENQILETLKPLIDANTGKSYVAAKNVKNLKCGDAEISLDVVLAYPAKSQFDAVRQQFEAALAPLAEGRAIKIAVSAQIVSHSAQRGVPLLPGVKNVIAVASGKGGVGKSTTAANLALALADEGARVGLLDADIYGPSQPLMMGLQGQRPETADGKLTPLSNHGIQTMSIGYLVDADQAMVWRGPMVSQALQQLLNDTRWDDLDYLVIDMPPGTGDVQLTLSQKVPVTGALIVTTPQDIALLDARKGVTMFQKVGVPILGLVENMAIHVCSNCGHAEHIFGEGGAVKMAQDFGVELLGSLPLDLAIRQAVDEGRPSVAADPSGKPAELYRAIARRVAVKVGEKAQDFSGKFPKIVIQNN”, the “soluble on expression in E. coli” value is reported as “soluble”. For “MGHHHHHHSHMASVSSATFSGHGARSLLQFLRLVGQLKRVPRTGWVYRNVQRPESVSDHMYRMAVMAMVIKDDRLNKDRKL”, the “soluble on expression in E. coli” value was “not soluble”. For “MGHHHHHHSHMCNTPTYCDLGKAAKDVFNKGYGFGMVKIDLKTKSCSGVMEFSTSGHAYTDTGKASGNLETKYKVCNYGLTFTQKWNTDNTLGTEISWENKLAEGLKLTLDTIFVPNTGKKSGKLKASYKRDCFSVGSNVDIDFSGPTIYGWAVLAFEGWLAGYQMSFDTAKSKLSQNNFALGYKAADFQLHTHVNDGTEFGGSIYQKVNEKIETSINLAWTAGSNNTRFGIAAKYMLDCRTSLSAKVNNASLIGLGYTQTLRPGVKLTLSALIDGKNFSAGGHKVGLGFELEA”, the “soluble on expression in E. coli” value was “not soluble”. With “MGHHHHHHSHMDWTLAMAQESGVWSEAGQLALHSYLEGLHTLASCAPAPSLSAPRLKSCIQCVESQLLVVIMSVCMLVCQLRNVCVCVHAHACMYLFPVPSGSGCHFRLSALSPATSVPQPEREMRCSWTPHCIWAAGPELV” the “soluble on expression in E. coli” value was “not soluble”. With “MGHHHHHHSHMEAPGPAQAAAAESNSREVTEDAADWAPALCPSPEARSPEAPAYRLQDCDALVTMGTGTFGRVHLVKEKTAKHFFALKVMSIPDVIRRKQEQHVHNEKSVLKEVSHPFLIRLFWTWHEERFLYMLMEYVPGGELFSYLRNRGHFSSTTGLFYSAEIICAIEYLHSKEIVYRDLKPENILLDRDGHIKLTDFGFAKKLVDRTWTLCGTPEYLAPEVIQSKGHGRAVDWWALGILIFEMLSGFPPFFDDNPFGIYQKILAGKLYFPRHLDFHVKTGRMM” the “soluble on expression in E. coli” value was “not soluble”. With “MGHHHHHHSHMEDSHKSTTSETAPQPGSAVQGAHISHIAQQVSSLSESEESQDSSDSIGSSQKAHGILARRPSYRKILKDLSSEDTRGRKGDGENSGVSAAVTSMSVPTPIYQTSSGQYIAIAPNGALQLASPGTDGVQGLQTLTMTNSGSTQQGTTILQYAQTSDGQQILVPSNQVVVQTASGDMQTYQIRTTPSATSLPQTVVMTSPVTLTSQTTKTDDPQLKREIRLMKNREAARECRRKKKEYVKCLENRVAVLENQNKTLIEELKTLKDLYSNKSV” the “soluble on expression in E. coli” value was “soluble”. In the case of “MGHHHHHHSHMENKGVVALYHYFYGPALIPYFSHTHNPQRSPDFSERQRRREITLTVDGFVPPSSTEDLGDGFYSYAWTNQQVINPGEYLVCHLEGRDINVINGGFTPRDTAPLYAVQAFQDEETNGSLSFIILCKPKEPYRFI”, the “soluble on expression in E. coli” value is reported as “not soluble”. With “MGHHHHHHSHMIINWNQVSVLWKCLLKQSASYQDRRQSWRRASMKETNRRKSLHPIHQGITELSRSISVDLAESKRLGCLLLSSFQFSIQKLEPFLRDTKGFSLESFRAKASSLSEELKHFADGLETDGTLQKCFEDSNGKASDFSLEASVAEMKEYITKFSLERQTWDQLLLHYQQEAKEILSRGSTEAKITEVKVEPMTYLGSSQNEVLNTKPDYQKNYRTRAKSLTVWSW” the “soluble on expression in E. coli” value was “not soluble”. With “MGHHHHHHSHMKEPLDGECGKAVVPQQELLDKIKEEPDNAQEYGCVQQPKTQESKLKIGGVSSVNERPIAQQLNPGFQLSFASSGPSVLLPSVPAVAIKVFCSGCKKMLYKGQTAYHKTGSTQLFCSTRCITRHSSPACLPPPPKKTCTNCSKYKILNIPFYFTFF” the “soluble on expression in E. coli” value was “not soluble”. In the case of “MGHHHHHHSHMKVVLSLGGSVLSNESEKIREFAKTIESVAQQNQVFVVVGGGKLAREYIKRARELGASETFCDYIGIAATRLNAMLLISAIPSAAKKVPVDFMEAEELSKLYRVVVMGGTFPGHTTDATAALLAEFIKADVFINATNVDGVYSADPKSDTSAVKYDRLSPQQLVEIVSRSSAKAGTNVVIDLLAAKIIERSKIKTYVIL”, the “soluble on expression in E. coli” value is reported as “soluble”. In the case of “MGHHHHHHSHMLAQPEPLVWVSKWVDYSNKFGFGYQLSSRRVAVLFNDGTHMALSANRKTVHYNPTSTKHFSFSVGAVPRALQPQLGILRYFASYMEQHLMKGGDLPSVEEVEVPAPPLLLQWVKTDQALLMLFSDGTVQVNFYGDHTKLILSGWEPLLVTFVARNRSACTYLASHLRQLGCSPDLRQRLRYALRLLRDRSPA”, the “soluble on expression in E. coli” value is reported as “not soluble”. For “MGHHHHHHSHMLIPKTMGKMSPGHVRDLHGSPSHHRPRGPGGKSGFVGWAQGLCAVCSLGTWCPVSQLLQPWLKGANIELGLWLQRVEAPSIGSFHVMLSLWVQRCQELRFGNLCLDFRIYMETPGCPGKSLLQGQSPHGEPLLGQCGREMWGRAPTQSPCWGTA”, the “soluble on expression in E. coli” value was “not soluble”. For “MGHHHHHHSHMLKKAKMAKDRKSRKKPVEVKKGKDPNAPKRPMSAYMLWLNASREKIKSDHPGISITDLSKKAGEIWKGMSKEKKEEWDRKAEDARRDYEKAMKEYEGGRG”, the “soluble on expression in E. coli” value was “soluble”. For “MGHHHHHHSHMLPPPQPGAAGGSGQPRKCSSRRNAWGNLSYADLITRAIESSPDKRLTLSQIYEWMVRCVPYFKDKGDSNSSAGWKNSIRHNLSLHSRFMRVQNEGTGKSSWWIINPDGGKSGKAPRRRAVSMDNSNKYTKSRGRAAKKKA”, the “soluble on expression in E. coli” value was “soluble”. For “MGHHHHHHSHMLSRWDDSQRFLSDHPYLVCEETAKYLILWCFHLEAEKKGALMEQIAHQAVVMQFIMEMAKNCNVDPRGCFRLFFQKAKAEEEGYFEAFKNELEAFKSRVRLYSQSQSFQPMTVQNHVPHSGVGSIGLLESLPQNPDYLQYSISTALCSLNSVVHKEDDEPKMMDTV”, the “soluble on expression in E. coli” value was “not soluble”. For “MGHHHHHHSHMLYVRCGTVGSRMFLVYVSYLINTTIEEKEIVCKCHKDETVTIETVFPFDVAVKFVSTKFEHLERVYADIPFLLMTDLLSASPWALTIVSSELQLAPSMTTVDQLESQVDNVILQTGESASECFCLQCPSLGNIEGGVATGHYIISWKRTSAMENIPIITTVITLPHVIVESIPLHVNADLPSFGRVRESLPVKYHLQNKTDLVQDVEISVEPSDAFMFSGLKQIRLRILPGTEQEMLYNFYPLMAGYQQLPSLNINLLRFPNFTNQLLRRFIPTSIFVKPQGRLMDDTSIAAA”, the “soluble on expression in E. coli” value was “not soluble”. With “MGHHHHHHSHMNKILIAAASSGTGKTTVTLGIMHALKKRGLRVQPFKVGPDYIDTNYHQAITGVASINLDSFLIDDDAMLAALFEKHGQSADISVIEGVMGLFDGLGIDRDNSSTSFIAKCTKTPVILVVDGKAISTSAAAIVDGFNRFDPELTIAGVIINRVASENHFSLIKGAIERYTDVPVLGYLPKNAAVALPERHLGLVPKEEMTELETKWEVLGDLIAEHVDLDRLLAISKTG” the “soluble on expression in E. coli” value was “not soluble”. With “MGHHHHHHSHMRPDCDGWLLLRKAPGGFMGPRWRRRWFVLKGHTLYWYRQPQDEKAEGLINVSNYSLESGHDQKKKYVFQLTHDVYKPFIFAADTLTDLSMWVRHLITCIS” the “soluble on expression in E. coli” value was “not soluble”. For “MGHHHHHHSHMSAPIVDAPAAEIVYKIISSDGVVSKMSEKAVQQSKTLSNLIENLGYTIENIETRDPIPVTNVNGKTMAKVAEWCEKHKADAIPEDNMNVLKTLTIPEWDQKFLKIEDEALFDLILASNFLDIKGLMYFGCKTVSNMAKGKTTAELREIFGINTDEQDAAEETAQRAAAEVA”, the “soluble on expression in E. coli” value was “soluble”. In the case of “MGHHHHHHSHMSLTTSHFIPFPREMVWDWHTRKGAVARLTPPFIPLNPITQAERLADGTTIFSLPAGLKWVARHDLSGFLNGSRFTDVCLTAPVKALANWRHVHNFVDQDGGTLITDSVSTRLPASTLTGMFAYRQTQLIEDLKF”, the “soluble on expression in E. coli” value is reported as “not soluble”. For “MGHHHHHHSHMVCSPVTVRIAPPDRRFSRSAIPEQIISSTLSSPSSNAPDPCAKETVLSALKEKKKKRTVEEEDQIFLDGQENKRSCLVDGLTDASSAFKVPRPGPDTLQFTVDVFHFANDSRNMIYITCHLKVTLAEQDPDELNKACSFSKPSNSWFPVEGPADICQCCNKGDCGTPSHSRRQPRVVSQWSTSASRNRRHVTEEADVTVGATDLPGQEW”, the “soluble on expression in E. coli” value was “not soluble”.
